Data: US10494415B2, “Insulin-like growth factor 2 (IGF2) binding agents” (Cancer Research Technology Limited, priority 2015, dated 2019)

Tests used:
[1] = system: Ewing sarcoma cell line (SKNMC); test: Synthetic lethality hit validation dose response curves; format: cell-based; details: Homo sapiens, SK-N-MC
Method: For synthetic lethality hit validation, fresh stocks of the […] drugs selected as hits were obtained (pictilisib, SYNkinase and PF-04691502, Cayman Chemical). The interaction of the selected drugs and IGF2-TRAP were evaluated by Q-value calculated by the formula Q=FD+T/FD+(1−FD)FT, where FD+T represents the fraction affected by treatment with the drug plus IGF2-TRAP compared with the untreated control group, FD represents the fraction affected by the drug alone, and FT represents the fraction affected by the IGF2-TRAP alone. A value of Q>1.15 indicates a synergistic effect, Q<0.85 indicates an antagonistic effect, and Q between 0.85 and 1.15 indicates an additive effect.

IGF2 [2] = target: T1, IGF2 (Homo sapiens, UniProt P01344); details: background, literature references; cited from earlier work
IGF2 [3] = target: T1, IGF2; test: SPR (Biacore T200) of recombinant IGF2R domain 11 mutants on immobilised biotinylated IGF2; format: binding; set-up: purchased GroPep
In short: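 Biotinylated IGF2 (or IGF1) captured on streptavidin chip; domain 11 mutants (E. coli or P. pastoris, AB5 background) injected at 25 °C, 40 μL/min, in HBS-EP pH 7.4 or MES-EP pH 6.5. kon/koff from 1:1 fit; KD as mean of 2-5 repeats.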

[4] = in the presence of Fc-domain 11^AB5-RHH (IGF2-TRAP)

T1 sequence (P01344 25-91): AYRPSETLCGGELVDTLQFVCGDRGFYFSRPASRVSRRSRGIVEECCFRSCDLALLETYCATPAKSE

Molecule	Kinetics koff (IGF2 [3]; Table 3, 25° C., HBS-EP pH 7.4)	Kinetics kon (IGF2 [3]; Table 3, 25° C., HBS-EP pH 7.4)	Kinetics koff (IGF2 [3]; Table 4, MES-EP pH 6.5)	Kinetics kon (IGF2 [3]; Table 4, MES-EP pH 6.5)	other results
CS(=O)(=O)N1CCN(Cc2cc3nc(-c4cccc5[nH]ncc45)nc(N4CCOCC4)c3s2)CC1 [Pictilisib, 4-[2-(1H-indazol-4-yl)-6-[(4-methylsulfonylpiperazin-1-yl)methyl]thieno[3,2-d]pyrimidin-4-yl]morpholine]	–	–	–	–	IC50 ([1]; drug alone): 1100 nM; IC50 [1, 4]: 140 nM
COc1ccc(-c2cc3c(C)nc(N)nc3n([C@H]3CC[C@H](OCCO)CC3)c2=O)cn1 [PF-04691502, 2-amino-8-[trans-4-(2-hydroxyethoxy)cyclohexyl]-6-(6-methoxypyridin-3-yl)-4-methylpyrido-[2,3-d]pyrimidin-7(8H)-one]	–	–	–	–	IC50 ([1]; drug alone): 420 nM; IC50 [1, 4]: 92 nM
AB3: IGF2R domain 11 with AB loop mutations E1544K, K1545S, L1547V (YSKSGV) (protein) MKSNEHDDCQVTNPSTGHLFDLSSLSGRAGFTAAYSKSGVVYMSICGENENCPPGVGACFGQTRISVGKANKRLRYVDQVLQLVYKDGSPCPSKSGLSYKSVISFVCRPEAGPTNRPMLISLDKQTCTLFFSWHTPLACEQATECSV	0.044 s⁻¹	2.76e+06 M⁻¹ s⁻¹	0.0381 s⁻¹	3.43e+06 M⁻¹ s⁻¹	Kd (IGF2 [2]): 15 nM; Kinetics koff (IGF2 [3]; Table 1, 25° C., HBS-EP pH 7.4): 0.044 s⁻¹; Kinetics kon (IGF2 [3]; Table 1, 25° C., HBS-EP pH 7.4): 2.76e+06 M⁻¹ s⁻¹; Kinetics koff (IGF2 [3]; Table 2): 0.044 s⁻¹; Kinetics kon (IGF2 [3]; Table 2): 2.76e+06 M⁻¹ s⁻¹
AB5 P1597Q: domain 11 AB5 + P1597Q (protein) MKSNEHDDCQVTNPSTGHLFDLSSLSGRAGFTAAYAKGWGVYMSICGENENCPPGVGACFGQTRISVGKANKRLRYVDQVLQLVYKDGSQCPSKSGLSYKSVISFVCRPEAGPTNRPMLISLDKQTCTLFFSWHTPLACEQATECSV	0.0203 s⁻¹	6.53e+06 M⁻¹ s⁻¹	–	–	–
AB5 Q1569R P1597K: domain 11 AB5 + Q1569R, P1597K (protein) MKSNEHDDCQVTNPSTGHLFDLSSLSGRAGFTAAYAKGWGVYMSICGENENCPPGVGACFGRTRISVGKANKRLRYVDQVLQLVYKDGSKCPSKSGLSYKSVISFVCRPEAGPTNRPMLISLDKQTCTLFFSWHTPLACEQATECSV	0.0091 s⁻¹	9.59e+06 M⁻¹ s⁻¹	–	–	–
AB5 HI^23D: domain 11 AB5 + HI loop of clone 23D (HFQS) (protein) MKSNEHDDCQVTNPSTGHLFDLSSLSGRAGFTAAYAKGWGVYMSICGENENCPPGVGACFGQTRISVGKANKRLRYVDQVLQLVYKDGSPCPSKSGLSYKSVISFVCRPEAGPTNRPMLISLHFQSCTLFFSWHTPLACEQATECSV	0.012 s⁻¹	–	–	–	–
AB5 P1597K S1602H: domain 11 AB5 + P1597K, S1602H (protein) MKSNEHDDCQVTNPSTGHLFDLSSLSGRAGFTAAYAKGWGVYMSICGENENCPPGVGACFGQTRISVGKANKRLRYVDQVLQLVYKDGSKCPSKHGLSYKSVISFVCRPEAGPTNRPMLISLDKQTCTLFFSWHTPLACEQATECSV	0.0096 s⁻¹	2.09e+06 M⁻¹ s⁻¹	–	–	–
AB5 Q1569R P1597H K1631W: domain 11 AB5 + Q1569R, P1597H, K1631W (protein) MKSNEHDDCQVTNPSTGHLFDLSSLSGRAGFTAAYAKGWGVYMSICGENENCPPGVGACFGRTRISVGKANKRLRYVDQVLQLVYKDGSHCPSKSGLSYKSVISFVCRPEAGPTNRPMLISLDWQTCTLFFSWHTPLACEQATECSV	0.0115 s⁻¹	1.12e+07 M⁻¹ s⁻¹	–	–	–
AB5 Q1569R P1597H: domain 11 AB5 + Q1569R, P1597H (protein) MKSNEHDDCQVTNPSTGHLFDLSSLSGRAGFTAAYAKGWGVYMSICGENENCPPGVGACFGRTRISVGKANKRLRYVDQVLQLVYKDGSHCPSKSGLSYKSVISFVCRPEAGPTNRPMLISLDKQTCTLFFSWHTPLACEQATECSV	0.0058 s⁻¹	3.2e+06 M⁻¹ s⁻¹	0.0034 s⁻¹	2.37e+06 M⁻¹ s⁻¹	–
WT: wild-type human IGF2R domain 11 (residues 1511-1650), AB loop YSEKGL (protein) MKSNEHDDCQVTNPSTGHLFDLSSLSGRAGFTAAYSEKGLVYMSICGENENCPPGVGACFGQTRISVGKANKRLRYVDQVLQLVYKDGSPCPSKSGLSYKSVISFVCRPEAGPTNRPMLISLDKQTCTLFFSWHTPLACEQATECSV	–	–	0.1441 s⁻¹	2.68e+06 M⁻¹ s⁻¹	Kd (IGF2 [2]): 40 to 60 nM; Kinetics koff (IGF2 [3]; Table 1, 25° C., HBS-EP pH 7.4): 0.23 s⁻¹; Kinetics kon (IGF2 [3]; Table 1, 25° C., HBS-EP pH 7.4): 5e+06 M⁻¹ s⁻¹; Kinetics koff (IGF2 [3]; Table 2): 0.23 s⁻¹; Kinetics kon (IGF2 [3]; Table 2): 5e+06 M⁻¹ s⁻¹; ΔH of IGF2 interaction (IGF2 [3]; van't Hoff, 10° C. to 30° C.): < 0; −TΔS of IGF2 interaction (IGF2 [3]; van't Hoff, 10° C. to 30° C.): > 0
AB5 P1597H S1602H: domain 11 AB5 + P1597H, S1602H (protein) MKSNEHDDCQVTNPSTGHLFDLSSLSGRAGFTAAYAKGWGVYMSICGENENCPPGVGACFGQTRISVGKANKRLRYVDQVLQLVYKDGSHCPSKHGLSYKSVISFVCRPEAGPTNRPMLISLDKQTCTLFFSWHTPLACEQATECSV	0.0046 s⁻¹	3.5e+06 M⁻¹ s⁻¹	0.0029 s⁻¹	5.32e+06 M⁻¹ s⁻¹	–
AB5 Q1569R P1597K S1602H: domain 11 AB5 + Q1569R, P1597K, S1602H (protein) MKSNEHDDCQVTNPSTGHLFDLSSLSGRAGFTAAYAKGWGVYMSICGENENCPPGVGACFGRTRISVGKANKRLRYVDQVLQLVYKDGSKCPSKHGLSYKSVISFVCRPEAGPTNRPMLISLDKQTCTLFFSWHTPLACEQATECSV	0.0073 s⁻¹	7.87e+06 M⁻¹ s⁻¹	–	–	–
AB5 Q1569R P1597H G1603K: domain 11 AB5 + Q1569R, P1597H, G1603K (protein) MKSNEHDDCQVTNPSTGHLFDLSSLSGRAGFTAAYAKGWGVYMSICGENENCPPGVGACFGRTRISVGKANKRLRYVDQVLQLVYKDGSHCPSKSKLSYKSVISFVCRPEAGPTNRPMLISLDKQTCTLFFSWHTPLACEQATECSV	0.0058 s⁻¹	6.67e+06 M⁻¹ s⁻¹	0.0051 s⁻¹	7.54e+06 M⁻¹ s⁻¹	–
AB5 Q1569R P1597H S1602H G1603K: domain 11 AB5 + Q1569R, P1597H, S1602H, G1603K (protein) MKSNEHDDCQVTNPSTGHLFDLSSLSGRAGFTAAYAKGWGVYMSICGENENCPPGVGACFGRTRISVGKANKRLRYVDQVLQLVYKDGSHCPSKHKLSYKSVISFVCRPEAGPTNRPMLISLDKQTCTLFFSWHTPLACEQATECSV	0.005 s⁻¹	–	–	–	–
AB5 Q1569R P1597K S1602H G1603K: domain 11 AB5 + Q1569R, P1597K, S1602H, G1603K (protein) MKSNEHDDCQVTNPSTGHLFDLSSLSGRAGFTAAYAKGWGVYMSICGENENCPPGVGACFGRTRISVGKANKRLRYVDQVLQLVYKDGSKCPSKHKLSYKSVISFVCRPEAGPTNRPMLISLDKQTCTLFFSWHTPLACEQATECSV	0.008 s⁻¹	–	–	–	–
AB5 P1597S: domain 11 AB5 + P1597S (protein) MKSNEHDDCQVTNPSTGHLFDLSSLSGRAGFTAAYAKGWGVYMSICGENENCPPGVGACFGQTRISVGKANKRLRYVDQVLQLVYKDGSSCPSKSGLSYKSVISFVCRPEAGPTNRPMLISLDKQTCTLFFSWHTPLACEQATECSV	0.0193 s⁻¹	5e+06 M⁻¹ s⁻¹	–	–	–
